# In PMC9482650 (Nature Communications, 2022):
# Square brackets hold non-standard residues; d marks the D form. Ends that are not written are not given here. * marks the point of attachment. Biotin = O=C1N[C@H]2[C@H](CS[C@H]2CCCCC(=O)*)N1; pS = N[C@@H](COP(=O)(O)O)C(=O)O
# B1: His6-MBP-SYNJ2BP PDZ (domain or fragment, human, UniProt P57105 13-100, looked up)
# chain: EINLTRGPSGLGFNIVGGTDQQYVSNDSGIYVSRIKENGAAALDGRLQEGDKILSVNGQDLKNLLHQDAVDLFRNAGYAVSLRVQHRL
# Assays:
# HTLV1 Tax1 PBM = molecular target: T1, HTLV1 Tax1 PBM (HTLV1, also: biotin attached via linker (not given here)); assay: holdup assay
# T1 chain: Biotin-SEKHFRETEV-OH
# RPS6KA1 PBM = molecular target: T2, RPS6KA1 PBM (human, also: biotin via linker: TTDS, Ahx or Ado-Ado); assay: holdup assay; biotinylated PBM peptide saturating streptavidin resin, His6-MBP-PDZ (4 µM) in solution, 15 min at room temperature, no washing, filtration; 50 mM TRIS pH 7.5, 300 mM NaCl, 1 mM TCEP; binding intensity converted to a steady-state Kd given as pKd; PDZ in bacterial lysate (LYSC), single (SAPF) or double (DAPF) affinity purified, which one for a given pair is not given
# T2 chain: Biotin-RVRKLPSTTL-OH
# [1] = molecular target: T3, p-3 phosphorylated RPS6KA1 PBM (human, not fully specified (N-terminus); also: N-terminal linker between biotin and peptide, type not given here); assay: as above
# T3 chain: RVRKLP[pS]TTL-OH
binder,measurement,setting,value
B1,pKd,HTLV1 Tax1 PBM,6.04 pKd (-log10 of Kd in M)
same,pKd,RPS6KA1 PBM,3.82 pKd (-log10 of Kd in M)
same,pKd,[1],4.48 pKd (-log10 of Kd in M)
